For 14 molecules, peptide exchange yield results are on record in patent US20230212244A1 (IMMATICS BIOTECHNOLOGIES, published 2023).

Sequences and labels used below:
B1: peptide TVDVATPSV (SEQ ID NO: 91) (peptide)
peptide: TVDVATPSV
B2: peptide AILDAHIEV (SEQ ID NO: 95) (peptide)
peptide: AILDAHIEV
B3: peptide KILVSLIEV (SEQ ID NO: 102) (peptide)
peptide: KILVSLIEV
B4: peptide KLYSRLVYV (SEQ ID NO: 96) (peptide)
peptide: KLYSRLVYV
B5: peptide ALWWGVVTV (SEQ ID NO: 97) (peptide)
peptide: ALWWGVVTV
notes: also called ALWWGWTV
B6: peptide AMNGKSFSV (SEQ ID NO: 98) (peptide)
peptide: AMNGKSFSV
B7: peptide WIDDTSAFV (SEQ ID NO: 92) (peptide)
peptide: WIDDTSAFV
B8: peptide SLQELRLLL (SEQ ID NO: 93) (peptide)
peptide: SLQELRLLL
B9: peptide GLSEGHTFQV (SEQ ID NO: 101) (peptide)
peptide: GLSEGHTFQV
B10: peptide ILDDHLSRV (SEQ ID NO: 9) (peptide)
peptide: ILDDHLSRV
B11: peptide KLLEVDLDTV (SEQ ID NO: 99) (peptide)
peptide: KLLEVDLDTV
B12: peptide SLDDFLATA (SEQ ID NO: 100) (peptide)
peptide: SLDDFLATA
B13: peptide KSMDIVLTV (SEQ ID NO: 94) (peptide)
peptide: KSMDIVLTV
B14: peptide FLFGYPKRL (SEQ ID NO: 103) (peptide)
peptide: FLFGYPKRL

The test concerns the target T1, HLA-A*02:01 (human).
T1 construct: MHC class I monomer made peptide-receptive by UV cleavage of a UV-sensitive ligand; also called peptide-receptive MHC molecules
As to the kind of experiment: UV-ligand exchange ELISA (anti-β2m), peptide exchange yield grade. The gist of the method:
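After UV-ligand exchange, peptide–MHC monomers were diluted 100-fold and captured for 1 h at 37 °C on streptavidin-coated plates, then detected with HRP-anti-β2m (2 ug/ml, 1 h, 37 °C) and TMB, A450 nm. Exchange yield was calculated against refolded HLA-A*02:01/MLA-001 standards (15–500 ng/ml).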
A general note: In an ELISA, binding on a coated surface is turned into a signal by an enzyme label.
Regarding B1, the peptide exchange yield was 50 to 75%. As to B2, the peptide exchange yield is at least 75%. In turn, B3 came in with a peptide exchange yield of 50 to 75%. For B4, the peptide exchange yield was 20 to 50%. Molecule B5 showed a peptide exchange yield of 20 to 50%. On to B6, for which the peptide exchange yield was 20 to 50%. Molecule B7 displayed a peptide exchange yield of 50 to 75%. Take B8: the peptide exchange yield was at least 75%. Then B9, with 50 to 75%; and B10, with 20 to 50%. B11 gave a peptide exchange yield of 50 to 75%.

For B12, the peptide exchange yield lay in the range of 50 to 75%. B13 returned a peptide exchange yield of 50 to 75%. Then B14, with 20 to 50%.
